{
  "source": "paper doi:10.1101/2021.07.22.453368",
  "key": {"[1]": {"target": "junctional adhesion molecule-A (human) (UniProt Q9Y624)", "sequence (Q9Y624 28-299)": "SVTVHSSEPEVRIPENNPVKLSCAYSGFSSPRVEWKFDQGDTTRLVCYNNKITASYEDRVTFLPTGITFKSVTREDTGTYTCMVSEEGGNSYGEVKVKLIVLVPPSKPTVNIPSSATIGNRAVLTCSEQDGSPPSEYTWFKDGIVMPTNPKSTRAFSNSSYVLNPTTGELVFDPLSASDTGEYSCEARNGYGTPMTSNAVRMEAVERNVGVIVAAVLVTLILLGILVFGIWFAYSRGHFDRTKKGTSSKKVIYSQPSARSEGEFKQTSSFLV", "assay": "flow cytometry on cells"}, "[2]": {"target": "human Nogo 66 receptor 1 (human) (UniProt Q9BZR6)", "sequence (Q9BZR6 27-447)": "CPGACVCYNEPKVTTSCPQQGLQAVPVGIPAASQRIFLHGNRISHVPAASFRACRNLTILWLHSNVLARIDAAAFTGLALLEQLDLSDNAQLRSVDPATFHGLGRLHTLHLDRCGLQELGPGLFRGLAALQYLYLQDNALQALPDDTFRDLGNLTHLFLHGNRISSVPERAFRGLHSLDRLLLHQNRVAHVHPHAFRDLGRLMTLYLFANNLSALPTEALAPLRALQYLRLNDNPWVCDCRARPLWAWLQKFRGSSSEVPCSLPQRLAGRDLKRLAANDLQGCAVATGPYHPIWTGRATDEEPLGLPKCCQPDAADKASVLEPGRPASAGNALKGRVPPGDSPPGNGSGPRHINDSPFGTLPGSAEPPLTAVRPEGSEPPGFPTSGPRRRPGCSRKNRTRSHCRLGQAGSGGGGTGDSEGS", "assay": "flow cytometry on cells"}},
  "data": [
    {"substance": "reovirus T3SA- virions (complex)", "values": [
      {"measurement": "percent of receptor-expressing cells bound by reovirus", "setting": "[1]", "value": "> 50", "unit": "%"},
      {"measurement": "percent of receptor-expressing cells bound by reovirus", "setting": "[2]", "value": "> 50", "unit": "%"}
    ]}
  ]
}
